# Laboratory results as given in US20080317723A1, “LYMPHATIC ENDOTHELIAL CELLS MATERIALS AND METHODS” (VEGENICS LIMITED, priority 2001, published 2008).
# B1: VEGF-C156S: VEGFR-3 specific mutant form of VEGF-C, cysteine 156 changed into serine; recombinant human (Thr103 to Ile225) (protein, UniProt P49767 103-225, looked up, variant C156S)
# chain: TEETIKFAAAHYNTEILKSIDNEWRKTQCMPREVCIDVGKEFGVATNTFFKPPSVSVYRCGGCCNSEGLQCMNTSTSYLSKTLFEITVPLSQGPKPVTISFANHTSCRCMSKLDVYRQVHSII
# What was measured:
# hVEGFR-2 = molecular target: T1, hVEGFR-2 (Homo sapiens, UniProt P35968); experiment: Biosensor (BIAcore) analysis of ligand binding to immobilized VEGFR-2; conditions: hVEGFR-2 bivalent immunoglobulin fusion protein immobilized; global fitting, 1:1 Langmuirian model with mass transfer
# T1 construct: Receptor domains were coupled to the carboxymethylated dextran layer of a CM5 sensor chip
# Method: (§1) Biosensor Analysis. All preparations were analysed for homogeneity and buffer exchanged by micropreparative size exclusion HPLC using a Superose 12 (3.2/30) column installed in a SMART system (Amersham Pharmacia Biotech, Uppsala, Sweden) immediately prior to use (Nice and Catimel, Bioessays, 21:339-352, 1999). The concentrations of VEGF-C and VEGF-D were determined by absorbance at 280 nm using E280 1% 1 cm of 0-65. Receptor domains were coupled to the carboxymethylated dextran layer of a CM5 sensor chip using standard amine coupling chemistry (Nice and Catimel, Bioessays, 21:339-352, 1999) for analysis of ligad binding using a BIAcore 2000 optical biosensor (BIAcore, Uppsala, Sweden). The levels immobilized were 3,000 RU and 7,000 RU for VEGFR-2 and VEGFR-3, respectively. Following immobilization, residual activated ester groups were blocked by treatment with 1 M ethanolamine hydrochloride pH 8.5 followed by washing with 10 mM diethylamine to remove non-covalently bound material. 10 mM diethylamine or 10 mM HCl was used to regenerate the sensor surface between analyses for VEGF-D or VEGF-C binding, respectively. Samples were diluted in running buffer (10 mM HEPES pH 7.4, 150 mM NaCl, 3.4 mM EDTA, 0.005% Tween 20). The apparent binding affinities of VEGF-C and VEGF-C156S to receptor domains were determined by analysis of the initial dissociation phase to obtain the kd, which was then used to constrain a global analysis of the association region of the curves, assuming a 1:1 Langmuirian model. Data were analysed using BLAevaluation 3.0 (BIAcore, Uppsala, Sweden) as described previously (Catimel et al., J. Chromatogr., 776:15-30, 1997).
# Biosensor analysis was used to further investigate the interactions of VEGF-C and VEGF-C156S with VEGFR-2 and VEGFR-3. Analysis of the biosensor binding curves confirmed that VEGF-C156S binds only to the extracellular domain of VEGFR-3, whereas wild type VEGF-C bound to both VEGFR-2 and VEGFR-3 receptors (FIG. 1D-FIG. 1G). […] However, in both assays the affinity of VEGF-C was higher towards VEGFR-3 than towards VEGFR-2.
# hVEGFR-3 = molecular target: T2, hVEGFR-3 (Homo sapiens, UniProt P35916); experiment: Biosensor (BIAcore) analysis of ligand binding to immobilized VEGFR-3; conditions: hVEGFR-3 bivalent immunoglobulin fusion protein immobilized; global fitting, 1:1 Langmuirian model with mass transfer
# T2 construct: Ig (immunoglobulin fusion partner); made in house
# T2 sequence (P35916 25-775 limits assumed): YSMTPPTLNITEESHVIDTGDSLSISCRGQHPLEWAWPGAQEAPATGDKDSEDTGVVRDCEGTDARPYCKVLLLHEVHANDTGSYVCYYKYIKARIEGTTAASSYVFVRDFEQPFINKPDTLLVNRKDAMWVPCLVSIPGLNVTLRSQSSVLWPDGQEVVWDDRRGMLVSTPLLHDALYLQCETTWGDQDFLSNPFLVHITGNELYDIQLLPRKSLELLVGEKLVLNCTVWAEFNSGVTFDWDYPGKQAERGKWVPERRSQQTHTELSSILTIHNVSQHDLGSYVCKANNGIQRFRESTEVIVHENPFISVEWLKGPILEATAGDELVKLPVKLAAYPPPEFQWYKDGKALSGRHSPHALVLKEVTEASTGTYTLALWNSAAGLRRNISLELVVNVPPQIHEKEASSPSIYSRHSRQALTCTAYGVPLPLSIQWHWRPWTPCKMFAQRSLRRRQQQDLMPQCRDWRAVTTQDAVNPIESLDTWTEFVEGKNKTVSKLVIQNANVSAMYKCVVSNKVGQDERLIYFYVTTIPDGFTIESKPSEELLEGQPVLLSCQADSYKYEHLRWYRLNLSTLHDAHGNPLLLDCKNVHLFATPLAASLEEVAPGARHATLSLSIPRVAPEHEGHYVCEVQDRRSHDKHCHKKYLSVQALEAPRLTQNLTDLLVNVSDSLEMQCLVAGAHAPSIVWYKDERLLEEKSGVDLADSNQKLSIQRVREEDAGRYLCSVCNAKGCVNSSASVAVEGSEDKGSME
# Method: as §1, with “Following immobilization, residual activated ester groups were blocked by treatment with 1 M ethanolamine hydrochloride pH 8.5 followed by washing with 10 mM diethylamine to remove non-covalently bound material. 10 mM diethylamine or 10 mM HCl was used to regenerate the sensor surface between analyses for VEGF-D or VEGF-C binding, respectively. Samples were diluted in running buffer (10 mM HEPES pH 7.4, 150 mM NaCl, 3.4 mM EDTA, 0.005% Tween 20).” left out, “1997). […]” for “1997).”
# T1 sequence (P35968 20-764 limits assumed): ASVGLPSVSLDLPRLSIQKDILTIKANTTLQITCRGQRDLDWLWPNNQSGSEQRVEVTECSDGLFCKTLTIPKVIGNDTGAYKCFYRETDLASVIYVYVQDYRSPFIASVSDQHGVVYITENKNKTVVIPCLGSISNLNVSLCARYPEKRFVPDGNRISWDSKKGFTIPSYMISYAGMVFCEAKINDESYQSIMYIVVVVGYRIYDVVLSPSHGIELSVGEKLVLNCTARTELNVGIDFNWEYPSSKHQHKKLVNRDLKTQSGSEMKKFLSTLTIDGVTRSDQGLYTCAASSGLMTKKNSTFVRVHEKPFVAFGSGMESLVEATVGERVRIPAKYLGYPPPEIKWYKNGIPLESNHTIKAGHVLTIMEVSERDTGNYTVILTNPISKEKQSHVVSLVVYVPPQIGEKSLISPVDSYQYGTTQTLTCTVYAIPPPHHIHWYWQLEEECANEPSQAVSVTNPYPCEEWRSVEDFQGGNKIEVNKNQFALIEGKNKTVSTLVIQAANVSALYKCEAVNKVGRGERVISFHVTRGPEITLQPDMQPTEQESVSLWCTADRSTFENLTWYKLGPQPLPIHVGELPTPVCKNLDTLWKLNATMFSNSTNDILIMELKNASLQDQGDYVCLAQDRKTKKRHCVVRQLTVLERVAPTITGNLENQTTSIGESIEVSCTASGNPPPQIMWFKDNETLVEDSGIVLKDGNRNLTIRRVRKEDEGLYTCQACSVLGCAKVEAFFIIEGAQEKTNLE
molecule,measurement,setting,value
B1,KD,hVEGFR-2,no binding
same,Ka,hVEGFR-2,no binding
same,Kd,hVEGFR-2,no binding
same,Ka,hVEGFR-3,3500 M⁻¹ s⁻¹
